In patent publication US20250188176A1:
Numbering of substitutions follows the chain as printed.

B1: FJ2246MP07H09 (Fab, V domains shown)
VH: EVQLVESGGDLVKPGGSLRLSCVASGFTFRDYAMTWVRQAPGKGLQWVSLINGSGGKTYYADAVKGRFTISRDNAKNTLYLQMNSLRAEDTAVYYCAVDRLTKTIRPQYYGLWSWGQGTLVTVSS
VL: DIVMTQTPLSLSVSPGETASISCRSSQSLLYSIGYNYLDWYLQKPGQSPQGLIYLGSKRASGVPDRFSGSGSGTDFTLRISRVEANDTGVYYCMQGLQSPLTFGQGTKLEIKR
B2: FJ2246MP06D11 (Fab, V domains shown)
VH: B1 VH with S114V
VL: B1 VL
B3: FJ2246MP10B12 (Fab, V domains shown)
VH: B1 VH with N52S, S114V
VL: DIVMTQTPLSLSVSPGETASISCRSSQSLLYSIGYNYLDWYLQKPGQSPQGLIYLGSKRASGVPDRFSGSGNGTDFTLRISRVEAEDTGVYYCMQGLHSPLSFGQGTKLEIK
B4: FJ2246MP10A10 (Fab, V domains shown)
VH: B1 VH with N52S, S114V
VL: B3 VL with N72S, S102T
B5: FJ2246MP05F12 (Fab, V domains shown)
VH: B1 VH with T28P, S114V
VL: B1 VL
B6: FJ2246MP06D12 (Fab, V domains shown)
VH: B1 VH with S54N, G55S, S114V
VL: B1 VL
B7: FJ2246MP06H07 (Fab, V domains shown)
VH: B1 VH with S54T, S114A
VL: B1 VL
B8: FJ2246MP07E01 (Fab, V domains shown)
VH: B1 VH with N52S
VL: B1 VL
B9: FJ2246MP06E01 (Fab, V domains shown)
VH: B1 VH with S114V
VL: B1 VL
B10: FJ2246MP10B07 (Fab, V domains shown)
VH: B1 VH with N52S, S114V
VL: B3 VL with N72S, S102T
B11: FJ2246MP06C01 (Fab, V domains shown)
VH: B1 VH with S54N, S114V
VL: B1 VL
B12: FJ2246MP06G08 (Fab, V domains shown)
VH: B1 VH with S54N, G56S, S114V
VL: B1 VL
B13: FJ2246MP06D01 (Fab, V domains shown)
VH: B1 VH with T28P, I51V, G56S, S114V
VL: B1 VL
B14: FJ2246MP06H01 (Fab, V domains shown)
VH: B1 VH with S54D, G55A, G56S, S114V
VL: B1 VL
B15: FJ2246MP06C10 (Fab, V domains shown)
VH: B1 VH with S114V
VL: B1 VL
B16: FJ2246MP07A09 (Fab, V domains shown)
VH: B1 VH with L112M
VL: B1 VL
B17: FJ2246MP10G07 (Fab, V domains shown)
VH: B1 VH with N52S, S114V
VL: B3 VL with N72S, E86D, S102T
B18: FJ2246MP06E12 (Fab, V domains shown)
VH: B1 VH with S54N, S114V
VL: B1 VL
B19: FJ2246MP10H03 (Fab, V domains shown)
VH: B1 VH with N52S, S114V
VL: B3 VL with N72S, H98R
B20: FJ2246MP10B02 (Fab, V domains shown)
VH: B1 VH with N52S, S114V
VL: B3 VL with N72S, E86N, S102T
B21: FJ2246MP10H11 (Fab, V domains shown)
VH: B1 VH with N52S, S114V
VL: B3 VL with N72S, E86N
B22: FJ2246MP10F04 (Fab, V domains shown)
VH: B1 VH with N52S, S114V
VL: B3 VL with Q27K, N72S, E86D, S102T
B23: FJ2246MP05A03 (Fab, V domains shown)
VH: B1 VH with F27L, T28P, T35A, N52S, S114V
VL: B1 VL
B24: FJ2246MP10D01 (Fab, V domains shown)
VH: B1 VH with N52S, S114V
VL: B3 VL with N72S, E86D, H98Q
B25: FJ2246MP10A09 (Fab, V domains shown)
VH: B1 VH with N52S, S114V
VL: B3 VL with N72S
B26: FJ2246MP10E12 (Fab, V domains shown)
VH: B1 VH with N52S, S114V
VL: B3 VL with N72S, H98Q
B27: FJ2246MP06A09 (Fab, V domains shown)
VH: B1 VH with S54N, G56S, S114V
VL: B1 VL
B28: FJ2246MP07A10 (Fab, V domains shown)
VH: B1 VH with I105V
VL: B1 VL
B29: FJ2246MP10G04 (Fab, V domains shown)
VH: B1 VH with N52S, S114V
VL: B3 VL with N72S, H98Q
B30: FJ2246MP06F01 (Fab, V domains shown)
VH: B1 VH with G56T, S114V
VL: B1 VL
B31: FJ2246MP06C02 (Fab, V domains shown)
VH: B1 VH with S54D, G56S, T58V, S114V
VL: B1 VL

What follows are binders tested against canine IL-4RA (construct not given) (canine) (assay: SPR, IL-4RA immobilised, periplasmic Fab).

Row | Improvement over parental [fold] | RU max [RU] | koff [s⁻¹] | Binder
1 | 5.4 | 509 | 5.23e-05 | B1
2 | 2.1 | 146 | 0.000132 | B2
3 | 3 | 304 | 9.41e-05 | B3
4 | 2.2 | 369 | 0.000126 | B4
5 | 3.2 | 208 | 8.83e-05 | B5
6 | 2.7 | 154 | 0.000102 | B6
7 | 3.7 | 568 | 7.5e-05 | B7
8 | 2.1 | 423 | 0.000135 | B8
9 | 2.4 | 152 | 0.000119 | B9
10 | 2.2 | 252 | 0.000125 | B10
11 | 2.3 | 160 | 0.000122 | B11
12 | 3.1 | 199 | 9.01e-05 | B12
13 | 3.6 | 323 | 7.72e-05 | B13
14 | 2.6 | 225 | 0.000106 | B14
15 | 2.1 | 135 | 0.000133 | B15
16 | 4.2 | 252 | 6.73e-05 | B16

Row | Improvement over parental [fold] | RU max [RU] | koff [s⁻¹] | Binder
17 | 2.5 | 372 | 0.000111 | B17
18 | 2.9 | 127 | 9.66e-05 | B18
19 | 2.2 | 243 | 0.000126 | B19
20 | 2.2 | 202 | 0.000127 | B20
21 | 2.8 | 261 | 9.9e-05 | B21
22 | 3.1 | 292 | 9.16e-05 | B22
23 | 2.3 | 400 | 0.000124 | B23
24 | 2 | 283 | 0.000137 | B24
25 | 3.1 | 437 | 8.91e-05 | B25
26 | 2 | 251 | 0.000139 | B26
27 | 2.6 | 152 | 0.000106 | B27
28 | 3.4 | 614 | 8.18e-05 | B28
29 | 2.1 | 251 | 0.000134 | B29
30 | 2.5 | 199 | 0.000112 | B30
31 | 2.2 | 272 | 0.000126 | B31
